Measurements published in the supplement of paper PMC9170038.

Tests used:
MS2 coat protein [1] = test: apparent KD of MS2 coat protein, switch ON state; designed switch direction (-1 OFF switch, 1 ON switch): -1; higher = weaker reporter binding; details: FMN input: 0 or 200 uM; Eterna round: R93 (includes R88 designs)
Summary of the method: (§1)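 Designed RNA switches were transcribed on-chip from Illumina sequencing clusters. SNAP-549-labelled MS2 coat protein was titrated onto them in twofold steps from 0.7 or 1.5 nM to 3 µM in 100 mM Tris-HCl pH 7.5, 80 mM KCl, 4 mM MgCl2, either without or with constant ligand. Apparent KD reflects the per-design median of normalised cluster binding-curve fits.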

MS2 coat protein [2] = test: apparent KD of MS2 coat protein, switch OFF state (with FMN for OFF switches, without FMN for ON switches); designed switch direction (-1 OFF switch, 1 ON switch): -1; higher = weaker reporter binding; details: FMN input: 0 or 200 uM; Eterna round: R93 (includes R88 designs)
Summary of the method: as §1

MS2 coat protein [3] = test: apparent KD of MS2 coat protein; designed switch direction (-1 OFF switch, 1 ON switch): 1; higher = weaker reporter binding
Summary of the method: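 For each design, the apparent KD is the median over clusters of curves fitted to normalised cluster fluorescence. Clusters held RNA switches with common flanks, transcribed on Illumina chips by stalled E. coli RNA polymerase. These were titrated with SNAP-549-labelled MS2 coat protein, doubling from 0.7 or 1.5 nM to 3 µM, without input, with 200 uM small-molecule ligand, or with an oligonucleotide input.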

[4] = Eterna round: R95, input ligand: FMN 200 uM
[5] = Eterna round: R95, input ligand: microRNA oligo, concentration not stated
[6] = Eterna round: R95, input ligand: none
[7] = input ligand: microRNA oligo, concentration not stated

Row | Sequence | apparent KD of MS2 coat protein (MS2 coat protein [1]) [nM] | apparent KD of MS2 coat protein (MS2 coat protein [2]) [nM] | apparent KD of MS2 coat protein (MS2 coat protein [3]; input ligand: FMN 200 uM) [nM] | apparent KD of MS2 coat protein (MS2 coat protein [3]; [7]) [nM] | apparent KD of MS2 coat protein (MS2 coat protein [3]; input ligand: none) [nM] | also measured
1 | AACAGUACAGGAUAUACAUGAGGAUCACCCAUGUGAAAAUUAAGUGGGAAACCACAAUGUAGAAGGGUACUGGA [Mat - Exclusion 3 - Eli mod - D50] | 121 | 109 | – | – | – | –
2 | ACAAGCCUAGGAUAUACAUGAGGAUCACCCAUGUGAAAGAACCGGUGACUCCUGGAAAGUAGAAGGAGGAAUCG [Biatla] | 44.7 | 40.1 | – | – | – | –
3 | AAAAAGUGAGGAUAUACGUUAAAAAAAAAAAAAAAAAAGCGGUAGAAGGCACAUGAGGAUCACCCAUGUAAAAA [Ex4 Malc#3] | 57.7 | 34.7 | – | – | – | –
4 | AAAAAGGGAGGAUAUACAGGAGGUCAAAAAAAAAAAAAAAAACAUGAGGAUCACCCAUGUAGAAGGCUUAAAAA [Ecls2-III] | 26.7 | 27.3 | – | – | – | –
5 | AGAUAGUCAGGAUAUACGAACAAGAAAAAAGACGAGAACGGACAUGAGGAUCACCCAUGUAGAAGGGACUAGAA [Diamond 11] | 45 | 28.6 | – | – | – | –
6 | AAAAAACAUGAGGAUCACCCAUGUAAGGAUAUGCAAAAAAUGGGUAAAAGGGUAAAAAGCAGAAGGUACAAAAA [scarecrow1] | 156 | 92.1 | – | – | – | –
7 | AGCUAGUCAGGAUAUACGAACAUGUCAGGAGACGUGAAGGGACAUGAGGAUCACCCAUGUAGAAGGGACUAGCG [74%, Web mod - With 3 more G's] | 37.2 | 128 | – | – | – | –
8 | AAAAAGUGAGGAUAUAGCAAAGGUCACGAAAGUGACAAAGGCUAGAAGGCACAUGAGGAUCACCCAUGUAAAAA [Fiskers Exclusion 4 D2 63% 1] | 41.6 | 34.9 | – | – | – | –
9 | AAGACGUAAGGAUAUAUUAUGGGACAAUGAAGGAAGAUAAAACAUGAGGAUCACCCAUGUAGAAGGUGCAAAGA [JR_Exclusion2_Sub3] | 40.3 | 32.8 | – | – | – | –
10 | AAAAUGUCAGGAUAUGCGAAGGCGUCUGACAGACGAGGAUUGCAGAAGGGACAUGAGGAUCACCCAUGUAAAAA [A Change in Energy (MS2 Riboswitch - Exclusion 4)] | 84.3 | 131 | – | – | – | –
11 | AGUCAUACAGGAUAUACAUGAGGAUCACCCAUGUAAAUCCUAAAAAAAUGAUCCUCAUGUAGAAGGGUAUGACA [EX3 221: Super Stable 21] | 16.8 | 14.4 | – | – | – | –
12 | AGAGACAGAGGAUAUACAUGAGGAUCACCCAUGUAAAAGAAAGAAAAGGGAAAGAAAAGUAGAAGGCUGAGAGA [Ruby 66] | 23.6 | 25.4 | – | – | – | –
13 | AAAAAACAUGAGGAUCACCCAUGUGAGGAUAUGCUAAAAAAAAUAAAAAUAAAACAUAGCAGAAGGCACACCAA [Amethyst 57] | 28.2 | 38.4 | – | – | – | –
14 | AACAUUCUAUCUCAGGAUAUCAUGUCAAAGACAUGAGGAUCACCCAUGUACCAGGAAACUGGUUAUGAGAAGGGAGAUAGAAUGG [Mat - Same State 2 - Mod - D48] (puzzle: Same State 2) | – | – | – | – | – | apparent KD of MS2 coat protein (MS2 coat protein [3]; [4]): 182 nM; apparent KD of MS2 coat protein (MS2 coat protein [3]; [5]): 195 nM; apparent KD of MS2 coat protein (MS2 coat protein [3]; [6]): 624 nM
15 | GCUCGGAUGAUGGCCCACAUGAGGAUCACCCAUGUGCGUGGGCAGGAUAUCUAGAUUAAGGAUGUAGAGAAGGGCCUACCGAGC [SameState NG3 #33] (Eterna round: R96, puzzle: Same State NG 3) | – | – | 543 | 140 | 179 | –
16 | CUUCGGAAGCGAGGAUAUGCAGAGGAUCACCCUGCAGAAGGCGCAAAAGCGAGGAUAUGCAGAGGAUCACCCUGCAGAAGGCGC [pwkr ssNG DX.34] (Eterna round: R96, puzzle: Same State NG 1) | – | – | 43 | 15.7 | 32.4 | –
17 | GGAGGACAUGAGGAUCACCCAUGUGGAUGGGCGCUAGGAUAUGCGAGAGGAUGGAGAGAAGCAGAAGGAGUGGGUU [JR_SS1_Sub042] (puzzle: Same State 1) | – | – | – | – | – | apparent KD of MS2 coat protein (MS2 coat protein [3]; [5]): 79.6 nM

Row | Sequence | apparent KD of MS2 coat protein (MS2 coat protein [1]) [nM] | apparent KD of MS2 coat protein (MS2 coat protein [2]) [nM] | apparent KD of MS2 coat protein (MS2 coat protein [3]; input ligand: FMN 200 uM) [nM] | apparent KD of MS2 coat protein (MS2 coat protein [3]; [7]) [nM] | apparent KD of MS2 coat protein (MS2 coat protein [3]; input ligand: none) [nM] | also measured
18 | GGAAAGAGGUCAGGAUAUGAAUGUUUGGGACAUGAGGAUCACCCAUGUAAUAGAAGAAAUCUACAUUAGAAGGGACAAGGAAGG [AK SSNG2-V2-6] (Eterna round: R96, puzzle: Same State NG 2) | – | – | 63.5 | 54.5 | 79.3 | –
19 | ACAUGAGAGAUAGGAUAUCUUGUACCUACAUGUGACAUGAGGAUCACCCAUGUGGUAAGUAUGAGGGAGAAGGGUCAGAUAUGU [Equivalence 45 - Jieux - Same State NG 2] (Eterna round: R96, puzzle: Same State NG 2) | – | – | – | 42.7 | – | –
20 | GCUCGAUGAGCUGUCUACAUGAGGAUCACCCAUGUAGAUGCGGAGGAUAUUUACGUGCUUUAUGUAGAGAAGGCCGUAUCGAGC [SameState NG3 #79] (Eterna round: R96, puzzle: Same State NG 3) | – | – | 12 | 15.6 | 17.9 | –
21 | UUAAUUAUGUAAGGAUAUACAUGAGGAUUUCUCGUAGAAGGUACAUUACAUGAGGAUCACCCAUGUGGGUGUCAGAAGACGCCA [Mat - Same State NG 1 - JL mod - D12] (Eterna round: R96, puzzle: Same State NG 1) | – | – | 269 | 210 | 404 | –
22 | CAGCGCUGUCGAGAGGAUAUGCGGUGAUGGACAUGAGGAUCACCCAUGUUAGCGAUAGCAUUACGGUAGAAGGCUCUACAGCUGC [Soteed] (Eterna round: R96, puzzle: Same State 2) | – | – | 18.7 | 32.1 | 47.4 | –
23 | AUAAAACAUGAGGAUCACCCAUGUCAACAAAGUCGAGGAUAUGGGCAAAUAAAAUAAGAACCAGAAGGCUAAUAAU [salish99_ss1_r3_052] (puzzle: Same State 1) | – | – | – | – | – | apparent KD of MS2 coat protein (MS2 coat protein [3]; [4]): 246 nM; apparent KD of MS2 coat protein (MS2 coat protein [3]; [5]): 378 nM; apparent KD of MS2 coat protein (MS2 coat protein [3]; [6]): 375 nM
24 | GUGGUCAGACAUGAGGAUCACCCAUGUGGAAUAAAUAAGGAUCAGGAUAUGGAAUAUAGGAUAUACCAGAAGGGAUGGUUGGUG (Eterna round: R96, puzzle: Same State NG 3) | – | – | 59.9 | 41.7 | 52.6 | –
25 | GGAGCCGGCACCGAGGAUAUUCAUAUUAAAACAUGAGGAUCACCCAUGUAGCUCGAAAGAGCUUGGGAGAAGGCGGAUCGGCUCG [Xeonanis - 29] (Eterna round: R96, puzzle: Same State 2) | – | – | 37.3 | 322 | 633 | –
26 | CCAACAUACAAUUUAAGAUCACAUGAGGAUCACCCAUGUAUGCAGGAUAUCAGCUCGUGUAGAGCUGAGAAGGGCAAUUUAAUU [SSNG3/1-A4] (Eterna round: R96, puzzle: Same State NG 3) | – | – | 103 | 193 | 265 | –
27 | AGUCUACGGUGACGUAGACAGUGGUGCGUACAUGAGGAUCACCCAUGUCAUGUGAGAGUUACUUGUUCGUCUUGAGC [SENSOR #4] (puzzle: Sensor for hsa-mir-208a) | – | – | – | – | – | apparent KD of MS2 coat protein (MS2 coat protein [3]; [4]): 20.7 nM; apparent KD of MS2 coat protein (MS2 coat protein [3]; [5]): 21.7 nM; apparent KD of MS2 coat protein (MS2 coat protein [3]; [6]): 22.6 nM
28 | GUGGUCAGACAUGAGGAUCACCCAUGUGGAAUAAAUAAGGUCAAGGAUAUGGAAUAUAGGAUAUACCAGAAGGUGAGGUUGGUG (Eterna round: R96, puzzle: Same State NG 3) | – | – | 245 | 167 | 225 | –
29 | UUUGCAUGACGAGGAUAUCAUUUAUUUCUUGAUUGAGAAGGCGUUCUUUUUAAUACCUAACAUGAGGAUCACCCAUGUGACAGU [JR_SSNG1_Sub047] (Eterna round: R96, puzzle: Same State NG 1) | – | – | – | 13.1 | – | –
30 | UGUUGUAUUACAGGAUAUCUAUUGUUUUAAUUUAGAGAAGGGUAUUCACAUGAGGAUCACCCAUGUAUAUACGAGGAAGUUGUG [JMF's solution 76] (Eterna round: R96, puzzle: Same State NG 1) | – | – | – | 40.6 | – | –
31 | AGCUAGUACCGAGGAUAUACAUACAUGAGGAUCACCCAUGUAUACAUGAAUUUAUGAGACUACAUGUAGAAGGCGGUACUAGCA [JL SSNG2 1.21] (Eterna round: R96, puzzle: Same State NG 2) | – | – | – | 40.1 | – | –
32 | UGGCUCAGAGCAGGAUAUAUGUGAUCACAUGAGGAUCACCCAUGUCUCGAGCUUCGGCUCGAGACAUAGAAGGGCUCUGAGCCU [SSNG2/3-B3] (Eterna round: R96, puzzle: Same State NG 2) | – | – | 110 | 52.7 | 137 | –
33 | UAUUUAAUCAUAGGAUAUAGUGUGUAAUUUGGACUAGAAGGAUGAAACAUGAGGAUCACCCAUGUGGUAAAUGGGAUACAUUCC [JR_SSNG1_Sub100] (Eterna round: R96, puzzle: Same State NG 1) | – | – | – | 59.8 | – | –
34 | CCGGUUAAUGGAGGAUAUGGAGCCUUAUUGGCUCCAGAAGGCUAACAUGAGGAUCACCCAUGUUUACCGGCGGUCAAUAGACCG [Eli NG1ss - 62] (Eterna round: R96, puzzle: Same State NG 1) | – | – | 11 | 11 | 18.8 | –
